The values below come from patent US20240307489A1 (WESTLAKE UNIVERSITY, published 2024).

The target in this assay is T1, LRP1 (low density lipoprotein receptor-related protein 1), endogenous in HEK293T cells (human, UniProt Q07954 20-4544).
T1 construct: Endogenous protein in HEK293T lysates (TAP-MS prey, co-IP); also called endogenous LRP1
Description: TAP-MS of SFB-tagged Notch pathway proteins in HEK293T cells. The procedure:
We picked 12 clones of each bait for the follow-up experiments and confirmed the bait protein expression and localization using Western blotting and immunostaining, respectively. From which, we chose two clones of each bait with the correct subcellular localization and a moderate expression close to that of endogenous one as biological repeat for TAP-MS analysis. HEK293T cells stably expressing C-terminal SFB-fused Notch pathway proteins were selected via culture in medium containing 2 μg/ml puromycin. Protein expression was confirmed via immunostaining and Western blotting as described previously (Wang, W., Li, X., Huang, J., Feng, L., Dolinta, K. G., and Chen, J. (2014). Defining the protein-protein interaction network of the human hippo pathway. Mol Cell Proteomics 13, 119-131.).
For TAP experiments, the membrane-bound and soluble proteins of 2×10⁸ HEK293T cells were extracted using a membrane/soluble protein isolation kit (Beyotime, China) with protease inhibitors at 4° C. The insoluble pellets from the crude lysis step were briefly sonicated and incubated with TurboNuclease for 30 min at 37° C. with occasional vortexing to extract chromatin-bound protein complexes. The lysates were then centrifuged at 14,000 rpm for 30 min at 4° C., and the supernatant was collected as a chromatin fraction. […]

T1 sequence (Q07954 20-4544 limits assumed): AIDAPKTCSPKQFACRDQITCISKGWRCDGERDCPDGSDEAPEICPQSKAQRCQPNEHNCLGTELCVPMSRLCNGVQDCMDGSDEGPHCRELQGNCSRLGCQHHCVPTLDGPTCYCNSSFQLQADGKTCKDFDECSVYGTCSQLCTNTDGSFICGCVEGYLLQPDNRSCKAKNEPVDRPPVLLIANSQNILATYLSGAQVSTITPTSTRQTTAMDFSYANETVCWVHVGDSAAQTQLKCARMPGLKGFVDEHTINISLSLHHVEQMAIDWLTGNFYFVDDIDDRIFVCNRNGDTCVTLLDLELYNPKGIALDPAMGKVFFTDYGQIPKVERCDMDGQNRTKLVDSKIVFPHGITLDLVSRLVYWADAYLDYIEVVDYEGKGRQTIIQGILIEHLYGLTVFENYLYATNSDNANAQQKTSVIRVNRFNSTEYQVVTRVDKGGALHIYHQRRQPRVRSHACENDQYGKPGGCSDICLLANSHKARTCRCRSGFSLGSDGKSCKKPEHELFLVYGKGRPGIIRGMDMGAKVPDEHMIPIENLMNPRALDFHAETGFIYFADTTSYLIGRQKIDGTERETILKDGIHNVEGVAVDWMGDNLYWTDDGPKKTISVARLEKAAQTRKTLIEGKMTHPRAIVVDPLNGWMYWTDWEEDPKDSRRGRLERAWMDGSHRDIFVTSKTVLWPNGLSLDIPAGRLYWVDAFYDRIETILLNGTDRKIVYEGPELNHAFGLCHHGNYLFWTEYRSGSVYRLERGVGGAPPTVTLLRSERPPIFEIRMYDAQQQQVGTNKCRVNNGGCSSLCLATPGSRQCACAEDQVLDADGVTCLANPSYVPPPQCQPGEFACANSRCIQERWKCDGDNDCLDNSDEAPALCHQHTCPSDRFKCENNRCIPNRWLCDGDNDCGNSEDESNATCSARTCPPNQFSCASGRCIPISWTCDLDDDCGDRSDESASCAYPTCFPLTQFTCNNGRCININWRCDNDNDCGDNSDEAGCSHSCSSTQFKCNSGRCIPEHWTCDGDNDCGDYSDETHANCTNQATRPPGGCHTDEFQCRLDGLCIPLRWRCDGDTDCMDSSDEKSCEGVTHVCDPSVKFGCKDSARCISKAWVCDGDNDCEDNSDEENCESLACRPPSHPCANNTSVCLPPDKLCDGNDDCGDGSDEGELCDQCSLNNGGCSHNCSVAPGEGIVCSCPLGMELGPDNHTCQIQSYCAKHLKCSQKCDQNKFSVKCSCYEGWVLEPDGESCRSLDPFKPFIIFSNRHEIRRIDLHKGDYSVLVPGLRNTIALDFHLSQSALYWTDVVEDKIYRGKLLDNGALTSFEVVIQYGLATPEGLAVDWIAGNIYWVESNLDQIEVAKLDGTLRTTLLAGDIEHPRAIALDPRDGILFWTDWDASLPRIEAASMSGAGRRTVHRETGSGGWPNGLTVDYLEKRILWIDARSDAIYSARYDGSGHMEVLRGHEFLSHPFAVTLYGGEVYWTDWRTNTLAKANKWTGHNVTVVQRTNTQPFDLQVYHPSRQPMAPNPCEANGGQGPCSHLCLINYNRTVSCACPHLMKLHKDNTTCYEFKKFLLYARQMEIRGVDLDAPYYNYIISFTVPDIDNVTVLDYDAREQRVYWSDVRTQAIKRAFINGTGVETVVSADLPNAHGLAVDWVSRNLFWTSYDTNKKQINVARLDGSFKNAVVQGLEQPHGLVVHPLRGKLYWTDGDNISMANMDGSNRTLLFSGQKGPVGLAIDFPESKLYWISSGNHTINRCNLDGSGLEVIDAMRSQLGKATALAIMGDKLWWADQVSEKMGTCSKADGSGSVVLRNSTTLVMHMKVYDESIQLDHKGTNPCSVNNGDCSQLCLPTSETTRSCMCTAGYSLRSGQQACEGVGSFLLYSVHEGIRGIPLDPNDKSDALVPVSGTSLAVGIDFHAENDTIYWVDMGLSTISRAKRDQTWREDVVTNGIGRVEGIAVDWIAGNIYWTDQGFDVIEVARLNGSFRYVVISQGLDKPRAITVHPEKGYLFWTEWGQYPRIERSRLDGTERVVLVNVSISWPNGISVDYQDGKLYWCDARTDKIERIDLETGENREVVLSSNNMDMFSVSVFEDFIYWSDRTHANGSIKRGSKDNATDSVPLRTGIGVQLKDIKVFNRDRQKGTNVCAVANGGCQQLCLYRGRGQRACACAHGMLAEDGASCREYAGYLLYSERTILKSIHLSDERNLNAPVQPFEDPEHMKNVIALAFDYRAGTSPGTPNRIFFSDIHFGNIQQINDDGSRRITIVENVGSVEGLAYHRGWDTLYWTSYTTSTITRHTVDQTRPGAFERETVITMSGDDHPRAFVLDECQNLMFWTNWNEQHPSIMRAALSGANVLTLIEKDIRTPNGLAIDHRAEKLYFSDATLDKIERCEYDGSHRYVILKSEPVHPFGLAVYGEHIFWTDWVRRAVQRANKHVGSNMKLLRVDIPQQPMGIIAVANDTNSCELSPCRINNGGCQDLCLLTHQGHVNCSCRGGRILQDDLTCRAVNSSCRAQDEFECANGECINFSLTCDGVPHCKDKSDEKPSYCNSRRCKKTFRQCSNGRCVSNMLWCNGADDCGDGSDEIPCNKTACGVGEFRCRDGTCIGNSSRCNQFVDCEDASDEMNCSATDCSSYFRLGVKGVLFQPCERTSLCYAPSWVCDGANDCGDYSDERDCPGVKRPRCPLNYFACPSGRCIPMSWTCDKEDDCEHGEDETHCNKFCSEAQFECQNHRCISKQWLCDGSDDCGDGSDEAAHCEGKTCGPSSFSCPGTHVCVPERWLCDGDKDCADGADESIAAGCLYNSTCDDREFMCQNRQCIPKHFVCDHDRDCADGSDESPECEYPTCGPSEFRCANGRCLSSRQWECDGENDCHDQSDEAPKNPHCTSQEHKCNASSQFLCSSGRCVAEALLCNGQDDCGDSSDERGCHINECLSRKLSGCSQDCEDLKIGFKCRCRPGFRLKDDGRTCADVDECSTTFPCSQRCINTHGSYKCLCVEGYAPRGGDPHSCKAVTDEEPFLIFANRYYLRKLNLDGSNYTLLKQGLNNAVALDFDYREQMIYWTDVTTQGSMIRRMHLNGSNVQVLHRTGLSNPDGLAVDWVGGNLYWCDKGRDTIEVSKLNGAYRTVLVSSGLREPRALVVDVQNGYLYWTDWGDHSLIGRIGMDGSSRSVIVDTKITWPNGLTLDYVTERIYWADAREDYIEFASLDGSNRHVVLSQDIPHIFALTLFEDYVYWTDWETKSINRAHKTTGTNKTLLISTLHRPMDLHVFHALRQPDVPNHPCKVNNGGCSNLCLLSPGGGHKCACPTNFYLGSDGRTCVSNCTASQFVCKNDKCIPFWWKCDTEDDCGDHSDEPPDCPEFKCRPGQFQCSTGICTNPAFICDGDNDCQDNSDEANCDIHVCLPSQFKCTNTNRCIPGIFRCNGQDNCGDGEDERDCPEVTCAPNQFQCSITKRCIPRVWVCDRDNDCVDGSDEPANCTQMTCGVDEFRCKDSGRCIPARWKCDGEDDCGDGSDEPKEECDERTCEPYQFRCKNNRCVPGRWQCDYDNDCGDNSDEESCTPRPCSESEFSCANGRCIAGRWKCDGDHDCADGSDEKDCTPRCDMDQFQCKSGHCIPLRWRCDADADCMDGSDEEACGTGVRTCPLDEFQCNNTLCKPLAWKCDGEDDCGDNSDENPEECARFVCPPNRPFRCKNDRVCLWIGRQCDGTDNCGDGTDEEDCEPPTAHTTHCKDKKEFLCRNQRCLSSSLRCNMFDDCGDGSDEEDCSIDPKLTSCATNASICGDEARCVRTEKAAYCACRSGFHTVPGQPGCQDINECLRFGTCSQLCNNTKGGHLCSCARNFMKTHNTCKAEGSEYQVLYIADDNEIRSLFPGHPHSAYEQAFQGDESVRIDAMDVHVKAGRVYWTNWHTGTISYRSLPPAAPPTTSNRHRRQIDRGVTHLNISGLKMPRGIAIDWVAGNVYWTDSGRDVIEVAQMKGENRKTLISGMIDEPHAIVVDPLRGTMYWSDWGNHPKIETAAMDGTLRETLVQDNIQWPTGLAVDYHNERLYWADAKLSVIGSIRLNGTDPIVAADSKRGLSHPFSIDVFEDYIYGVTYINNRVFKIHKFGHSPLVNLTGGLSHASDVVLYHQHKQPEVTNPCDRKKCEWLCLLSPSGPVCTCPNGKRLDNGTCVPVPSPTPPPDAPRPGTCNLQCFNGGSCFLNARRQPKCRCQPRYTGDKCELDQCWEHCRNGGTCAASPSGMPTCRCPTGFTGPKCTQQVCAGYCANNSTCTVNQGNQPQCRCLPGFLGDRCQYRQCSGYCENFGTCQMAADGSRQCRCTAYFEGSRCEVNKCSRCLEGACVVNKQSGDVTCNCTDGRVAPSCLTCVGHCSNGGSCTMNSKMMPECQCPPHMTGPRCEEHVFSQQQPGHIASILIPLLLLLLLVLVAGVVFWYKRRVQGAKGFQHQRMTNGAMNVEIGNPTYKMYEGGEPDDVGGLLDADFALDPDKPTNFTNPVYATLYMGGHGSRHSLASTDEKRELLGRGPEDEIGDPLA

B1: cSFB-tagged wild-type DLL3 (ligand, human, UniProt Q9NYJ7 27-618, looked up)
chain: AGVFELQIHSFGPGPGPGAPRSPCSARLPCRLFFRVCLKPGLSEEAAESPCALGAALSARGPVYTEQPGAPAPDLPLPDGLLQVPFRDAWPGTFSFIIETWREELGDQIGGPAWSLLARVAGRRRLAAGGPWARDIQRAGAWELRFSYRARCEPPAVGTACTRLCRPRSAPSRCGPGLRPCAPLEDECEAPLVCRAGCSPEHGFCEQPGECRCLEGWTGPLCTVPVSTSSCLSPRGPSSATTGCLVPGPGPCDGNPCANGGSCSETPRSFECTCPRGFYGLRCEVSGVTCADGPCFNGGLCVGGADPDSAYICHCPPGFQGSNCEKRVDRCSLQPCRNGGLCLDLGHALRCRCRAGFAGPRCEHDLDDCAGRACANGGTCVEGGGAHRCSCALGFGGRDCRERADPCAARPCAHGGRCYAHFSGLVCACAPGYMGARCEFPVHPDGASALPAAPPGLRPGDPQRYLLPPALGLLVAAGVAGAALLLVHVRRRGHSQDAGSRLLAGTPEPSVHALPDALNNLRTQEGSGDGPSSSVDWNRPEDVDPQGIYVISAPSIYAREVATPLFPPLHTGRAGQRQHLLFPYPSSILSVK
notes: Expressed in HEK293T cells, pulled down on S beads; also called cSFB-DLL3; C-terminal SFB-fused DLL3; not shown: C-terminal SFB triple tag (S protein tag-2xFLAG tag-SBP tag)
On to B1, for which the binding result is “binds”.
